{
  "source": "paper PMC3006222",
  "origin": "cited, not measured here",
  "molecular_target": "Heat-labile enterotoxin B subunit (LTB) (UniProt P0CK94)",
  "sequence (P0CK94 whole entry)": "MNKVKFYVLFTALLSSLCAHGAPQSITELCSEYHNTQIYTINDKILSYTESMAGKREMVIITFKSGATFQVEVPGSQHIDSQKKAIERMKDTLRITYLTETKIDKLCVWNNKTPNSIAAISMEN",
  "test": "not stated in this article (acid-induced pentamer disassembly, earlier work)",
  "details": "pH 1.9",
  "data": [
    {"substance": "Heat-labile enterotoxin B subunit (LTB)", "values": [
      {"measurement": "threshold pH for acid disassembly of the pentamer", "result": 1.9, "unit": "pH"}
    ]}
  ]
}
